The results in this text go back to paper PMC11267001, “RhoG facilitates a conformational transition in the guanine nucleotide exchange factor complex DOCK5/ELMO1 to an open state” (The Journal of Biological Chemistry, 2024).

Assay [1] concerns the target C-terminal truncated DOCK5 (DOCK5^ΔC, residues 1-1642) (human, UniProt Q9H7D0 1-1642). Description: cryo-EM structure; DOCK5^ΔC/ELMO1^FL/Rac1^G15A (0.9 μM) mixed with RhoG^Q61L (15 μM), cross-linked with 1 mM BS3, SEC; 20 mM HEPES-NaOH pH 8.0, 300 mM NaCl, 1 mM TCEP, 0.06% digitonin. Particulars: both partners purified.
The target of assay [2] is human full-length ELMO1 (ELMO1^FL, residues 1-727) (human, UniProt Q92556 1-727). The assay is described as above. Particulars: both partners purified.

B1: constitutively active RhoG^Q61L mutant (GTPase domain, residues 1-184) (domain or fragment)
chain: not shown
On to B1, for which the binding result in assay [1] and in assay [2] was “binds” each time.
